Source: article PMC4650713, “Crystal structure of Bax bound to the BH3 peptide of Bim identifies important contacts for interaction” (Cell Death & Disease, 2015)

B1: BaxI66AΔC21 (domain or fragment, UniProt Q07812 1-171, looked up)
chain: MDGSGEQPRGGGPTSSEQIMKTGALLLQGFIQDRAGRMGGEAPELALDPVPQDASTKKLSESLKRAGDELDSNMELQRMIAAVDTDSPREVFFRVAADMFSDGNFNWGRVVALFYFASKLVLKALSTKVPELIRTIMGWTLDFLRERLLGWIQDQGGWDGLLSYFGTPTWQ
notes: BaxΔC21 (Bax truncated at the C terminus by 21 amino acids, with C62S and C126S) with I66A; Called a BaxΔC21 mutant; In the crystal it stands as a core/latch dimer; also called BaxΔC21 mutant I66A
B2: BaxΔC28 (domain or fragment)
chain: MDGSGEQPRGGGPTSSEQIMKTGALLLQGFIQDRAGRMGGEAPELALDPVPQDASTKKLSESLKRIGDELDSNMELQRMIAAVDTDSPREVFFRVAADMFSDGNFNWGRVVALFYFASKLVLKALSTKVPELIRTIMGWTLDFLRERLLGWIQDQGGWDGLLSYSS
notes: Bax truncated at the C terminus by 28 amino acids, with C62S and C126S; lacks F165; two extra residues (Ser–Ser) at the C terminus after intein digestion, a cloning artefact; In the crystal it stands as a core/latch dimer; also called Bax C62S C126S truncated at the C terminus by 28 amino acids
B3: BaxΔC26 (domain or fragment)
chain: MDGSGEQPRGGGPTSSEQIMKTGALLLQGFIQDRAGRMGGEAPELALDPVPQDASTKKLSESLKRIGDELDSNMELQRMIAAVDTDSPREVFFRVAADMFSDGNFNWGRVVALFYFASKLVLKALSTKVPELIRTIMGWTLDFLRERLLGWIQDQGGWDGLLSYFGSS
notes: Bax truncated at the C terminus by 26 amino acids, with C62S and C126S; C terminus G166; two extra residues (Ser–Ser) at the C terminus after intein digestion, a cloning artefact; In the crystals it stands as a domain-swapped core/latch dimer, each chain with one BH3 peptide; also called Bax C62S C126S truncated at the C terminus by 26 amino acids

Legend:
[1] = molecular target: the molecule itself; assay: crystal structure; BidBH3, BimBH3mini or BidBH3mini with core/latch dimers of BaxI66AΔC21, BaxΔC26 or BaxΔC28; threefold molar excess of peptide; about 1 M tri-sodium citrate, 0.1 M sodium cacodylate pH 6.5, 277 K
[2] = molecular target: the molecule itself; assay: crystal structure; BimBH3:BaxΔC26; core/latch dimer induced by peptide, purified by SEC, threefold molar excess of peptide added; 0.1 M sodium bicine pH 9.0, 20% PEG6000, 277 K

Protein | stoichiometry N [1] | stoichiometry N [2]
B1 | 2 | 
B2 | 2 | 
B3 |  | 2
